Where “and” joins values, the source holds several entries; their conditions need not be identical. Identical values can stand only once.

By Kd is commonly meant the equilibrium constant for the complex coming apart. For orientation: kon means the rate constant with which the complex forms. What is called koff is the rate constant with which the complex falls apart. What is called EC50 is the concentration needed to bring the measured effect to its halfway point. A higher EC50 goes with weaker potency.

In assay [1] the target is T1, recombinant human PSMA/His (human, UniProt Q04609 44-750).
T1 construct: not shown: His tag
T1 sequence (Q04609 44-750 limits assumed): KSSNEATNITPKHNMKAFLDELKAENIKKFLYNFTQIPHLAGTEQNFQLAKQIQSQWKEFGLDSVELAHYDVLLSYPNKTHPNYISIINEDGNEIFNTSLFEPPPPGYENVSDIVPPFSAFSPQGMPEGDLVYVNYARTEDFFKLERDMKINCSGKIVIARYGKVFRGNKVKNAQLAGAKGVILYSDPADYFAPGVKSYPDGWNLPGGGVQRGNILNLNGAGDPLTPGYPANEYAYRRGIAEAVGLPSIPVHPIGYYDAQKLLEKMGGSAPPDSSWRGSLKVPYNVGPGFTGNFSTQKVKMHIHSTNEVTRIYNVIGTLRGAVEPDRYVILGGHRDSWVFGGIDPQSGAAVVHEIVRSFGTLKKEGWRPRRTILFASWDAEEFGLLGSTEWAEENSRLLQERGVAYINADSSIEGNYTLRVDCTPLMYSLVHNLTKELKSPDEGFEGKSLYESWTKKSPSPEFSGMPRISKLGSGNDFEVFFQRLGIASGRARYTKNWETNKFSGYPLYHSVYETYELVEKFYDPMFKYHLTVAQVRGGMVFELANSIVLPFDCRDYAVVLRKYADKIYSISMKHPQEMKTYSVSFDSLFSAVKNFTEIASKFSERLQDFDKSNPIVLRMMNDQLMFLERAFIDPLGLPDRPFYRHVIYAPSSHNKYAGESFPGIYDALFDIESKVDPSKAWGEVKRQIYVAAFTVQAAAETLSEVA
Nature of the assay: Octet biolayer interferometry, antibody amine-coupled to AR2G sensor, recombinant human PSMA/His in solution at 2.15 to 68.8 nM, global 1:1 fit (same value in all 6 rows). The protocol: (§1) Specifically, an amine Reactive Second-Generation (AR2G) sensor was coated with antibody (15 ug/ml in acetic buffer, pH5.0) using Sulfo-N-hydroxysuccinimide/N-Ethyl-N′-(3-dimethylaminopropyl)carbodiimide hydrochloride (Sulfo-NHS/EDC) coupling methodology. The sensors were quenched with 1M pH 8.5 ethanolamine Data was collected by moving sensors to serially diluted recombinant human PSMA/His (in PBS buffer) wells, then the data was dissociated by transferring the sensors to PBS wells. A 1:1 binding model was used to fit the data.

Assay [2] concerns the target T1, recombinant human PSMA/His. Nature of the assay: BLI (Octet), antibody amine-coupled to AR2G sensor, PSMA/His in solution, 1:1 model; FIG. 4, second antibody (PSGB11; printed as PSA11). The protocol:
as §1
Background: BLI is a label-free optical method that tracks binding on a fibre tip over time.

Assay [3] concerns the target T2, endogenous human PSMA (prostate-specific membrane antigen) expressed on LNCaP human prostate cancer cells (human, UniProt Q04609 1-750). Briefly: cell-based or functional assay.
The target of assay [4] is T1, recombinant human PSMA/His. Briefly: Octet biolayer interferometry, antibody amine-coupled to AR2G sensor, recombinant human PSMA/His in solution at 2.15 to 68.8 nM, global 1:1 fit; column headed kdis(1/s) (same value in all 6 rows). The procedure: as §1
Assay [5] has as its target T2, endogenous human PSMA …. Nature of the assay: flow cytometry on LNCaP cells. The protocol:
PSMA expressing LNCaP cells were harvested with enzyme-free Cell Dissociation Buffer (GIBCO) and transferred to V-Bottom 96 well-plates (50,000 cells/well). Cells were incubated on ice for 45 min with serial dilutions of anti-PSMA antibodies PSGB11, PSGB12, PSGC12, PSGD4, PSGD6 and PSA11 in FACS buffer (PBS+ 2% FBS)+NaN₃. […] After 1 wash in FACS buffer, a 1:1000 dilution of Phycoerythrin conjugated anti-Human IgG (γ-chain specific) was added and incubated for 30 min Following a final wash, fluorescence intensity was measured on an Intellicyt High Throughput Flow Cytometer (HTFC).
Data were analyzed using Graphpad Prism software and non-linear regression fit. Data points are shown as the median fluorescence intensity (MFI) of positively labeled cells +/−Standard Error. EC₅₀ values are reported as the concentration of antibody to achieve 50% of maximal PSMA antibodies binding to PSMA expressing cells.
A general note: Flow cytometry measures light scatter and fluorescence of single cells or particles in a stream.

T2 sequence (Q04609 whole entry): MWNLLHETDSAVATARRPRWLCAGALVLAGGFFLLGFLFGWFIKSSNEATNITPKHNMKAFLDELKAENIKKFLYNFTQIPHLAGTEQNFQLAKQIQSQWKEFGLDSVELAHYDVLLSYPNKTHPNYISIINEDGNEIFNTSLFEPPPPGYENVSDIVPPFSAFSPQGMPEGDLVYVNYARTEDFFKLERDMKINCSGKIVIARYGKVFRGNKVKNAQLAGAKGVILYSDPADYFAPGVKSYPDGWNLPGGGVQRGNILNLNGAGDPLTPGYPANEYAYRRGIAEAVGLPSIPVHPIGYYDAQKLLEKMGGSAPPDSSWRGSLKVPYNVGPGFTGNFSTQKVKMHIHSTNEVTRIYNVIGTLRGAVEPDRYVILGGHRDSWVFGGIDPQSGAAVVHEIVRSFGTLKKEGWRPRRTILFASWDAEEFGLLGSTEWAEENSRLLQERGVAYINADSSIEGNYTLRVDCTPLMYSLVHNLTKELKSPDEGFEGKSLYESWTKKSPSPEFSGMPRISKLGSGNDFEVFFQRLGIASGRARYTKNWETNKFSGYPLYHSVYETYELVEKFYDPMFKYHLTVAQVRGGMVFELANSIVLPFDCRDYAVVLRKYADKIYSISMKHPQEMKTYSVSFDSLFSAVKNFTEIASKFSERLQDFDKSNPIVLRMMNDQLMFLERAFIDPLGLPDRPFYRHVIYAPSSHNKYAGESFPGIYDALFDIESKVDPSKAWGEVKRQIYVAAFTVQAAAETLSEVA

B1: anti-PSMA antibody PSGB11 (antibody, V domains shown)
VH: QVQLVQSGGGLVQPGGSLRLSCAASGFTFSSYWMSWVRQAPGKGLEWVANIKQDGSEKYYVDSVKGRFTISRDNAKNSLYLQMNSLRAEDTAVYYCARVWDYYYDSSGDAFDIWGQGTMVTVSS
VL: EIVLTQSPSTLSASVGDRVTITCRASQSISSWLAWYQQKPGKAPRLLIYAASILQRGVPSRFSGSGSETDFTLTISSLQPEDLATYYCQETYSNLFTFGPGTKVDIK
notes: Fully human IgG
As to B1, in assay [1], the Kd is 0.677 nM and the kon was 97000 M⁻¹ s⁻¹. In addition, in assay [2], the Kd is about 0.68 nM. Also, in assay [3], the “Cell killing, 2-hours-wash method (IC50, nM); antibody pre-complexed with Protein G-MMAF, LNCaP cells, Cell Titer Glo” value stood at 1.6 nM and the “Cell killing, No wash method (IC50, nM); antibody pre-complexed with Protein G-MMAF, LNCaP cells, Cell Titer Glo” value stood at 0.04 nM. For the same molecule, in assay [4], the koff was 6.57e-05 s⁻¹. Besides, the EC50 in assay [5] was 1.98 nM and 1.83 nM.

The record behind these values is patent US20160326264A1 (SORRENTO THERAPEUTICS, published 2016).
